According to PMC5009254, “Accessory Interaction Motifs in the Atg19 Cargo Receptor Enable Strong Binding to the Clustered Ubiquitin-related Atg8 Protein*^([image sbox.jpg])” (The Journal of Biological Chemistry, 2016):
Where no end group is shown, it is not given here.

Experiments:
[1] = target: GST-Atg19 CTD L384A, L387A (S. cerevisiae) (UniProt P35193); experiment: microscopy-based protein-protein interaction assay on beads; glutathione-Sepharose beads coated with GST-Atg19 CTDs, washed, in 1 μM EGFP-Atg8 solution, 25 mM HEPES pH 7.5, 150 mM NaCl, 1 mM DTT; imaged by spinning disc microscopy without washing; signal normalized to wild type
[2] = target: GST-Atg19 CTD F376A, F379A, L384A, L387A (S. cerevisiae) (UniProt P35193); experiment: as above
[3] = target: GST-Atg19 CTD W412A (S. cerevisiae) (UniProt P35193); experiment: as above
[4] = target: T1, Atg8 (Saccharomyces cerevisiae, UniProt P38182, K26P); experiment: biochemical; type: binding
T1 construct: Atg8 1–117; GST (N, cleaved yes); made in house; host or cells: Escherichia coli Rosetta pLysS DE3
Source text: To test this hypothesis, we titrated 12 amino acid-long peptides containing the respective LIR-like motif in the center (Fig. 1) into labeled Atg8 and recorded the CSCs (Fig. 5). […] We attempted to determine a more exact Kd for the FYSF and LPEL peptides by isothermal titration calorimetry.
To corroborate our NMR-based interactions studies, we attempted to measure their interaction with Atg8 by isothermal titration calorimetry.

[5] = target: Atg8 used for isothermal titration calorimetry (S. cerevisiae) (UniProt P38182); experiment: ITC; peptides titrated, Atg8; conditions not given
[6] = target: T2, Atg8 K26P, 15N isotope-labeled (S. cerevisiae, UniProt P38182 1-117, K26P, 15N isotope-labeled); experiment: NMR titration; unlabeled Atg19 CTD or peptide titrated into 15N-labeled Atg8 K26P; 2D 15N HSQC at 25 °C; Atg8 135-500 μM, Atg19 C terminus 15-1000 μM; Kd estimated as the median of one-site saturation fits of CSCs of four to twelve Atg8 residues; conditions: both partners purified
T2 construct: Atg8, S. cerevisiae, amino acids 1-117, K26P mutant used for stability in NMR; Cloned in pGEX-4-T1; GST cut off with thrombin; also called [15N]Atg8; K26P mutant of Atg8; source: E. coli Rosetta pLysS DE3 in M9 minimal medium with [15N]ammonium chloride, purified (glutathione beads, thrombin, SEC)
T2 sequence (looked up): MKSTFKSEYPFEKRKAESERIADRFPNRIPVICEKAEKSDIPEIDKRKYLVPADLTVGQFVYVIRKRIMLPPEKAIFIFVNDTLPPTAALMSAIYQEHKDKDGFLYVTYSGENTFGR

[7] = target: T3, EGFP-Atg8, P38182; experiment: microscopy-based protein-protein interaction assay (GST-Atg19 CTD on glutathione-Sepharose beads, spinning disc microscopy); conditions: chain shown with the change; 1 μm EGFP-Atg8 solution; parent: 100
T3 chain: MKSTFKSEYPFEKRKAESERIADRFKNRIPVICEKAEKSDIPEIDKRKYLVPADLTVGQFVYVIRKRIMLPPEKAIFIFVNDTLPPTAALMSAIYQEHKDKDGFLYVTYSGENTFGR

[8] = test system: EGFP-Atg8; experiment: Microscopy-based protein-protein interaction assay: EGFP-Atg8 recruited to glutathione-Sepharose beads coated with GST-Atg19 CTD; type: binding, Saccharomyces cerevisiae; conditions: GST-tagged Atg19 CTD on glutathione-Sepharose beads, 1 μM EGFP-Atg8, 30 min, spinning disc microscopy; mean of 3 experiments
Source text: To confirm the contributions of the ^376FYSF^379 and ^384LPEL^387 motifs for Atg8 binding, we employed a microscopy-based protein-protein interaction assay. To this end, EGFP-Atg8 in solution was recruited to glutathione-Sepharose beads coated with GST-Atg19 C termini (Fig. 6, A and B). Atg8 bound efficiently to beads coated with the wild-type C terminus. Upon introduction of the W412A mutation, the Atg8 signal on the beads dropped to 23%.
FIGURE 6. Accessory LIR motifs contribute to Atg8 binding in a microscopy-based interaction assay. A, glutathione-Sepharose beads were coated with GST-tagged Atg19 CTDs, washed, incubated in a 1 μM EGFP-Atg8 solution, and imaged by spinning disc microscopy. B, signal intensity of EGFP-Atg8 decreased for the LIR and accessory LIR mutants. C, quantification of the EGFP signal (mean ± S.D. from 3 experiments) on GST-Atg19 CTD-coated beads normalized to the mean signal on wild-type GST-Atg19 CTD-coated beads. Scale bars = 30 μm. TEXT PRINTED IN THE PICTURE: (B) W412A: relative binding (%): 23% | (B) L384, L387A: relative binding (%): 47% | (B) F376, F379, L384, L387A: relative binding (%): 25% | (B) L384, L387, W412A: relative binding (%): 7% | (B) F376, F379, L384, L387, W412A: relative binding (%): 2%
Glutathione-Sepharose 4B beads (GE Healthcare) were incubated with GST-tagged Atg19 C terminus for 1 h at 4 °C. After washing the beads three times with 25 mM HEPES (pH 7.5), 150 mM NaCl, and 1 mM DTT, 1 μl of a 1:1 resuspension of glutathione beads in protein solution was added to a 1 μM solution of EGFP-Atg8 30 min prior to imaging. Microscopic images were acquired using a confocal spinning disc microscope (Visitron) and processed with ImageJ software.

[9] = target: Atg8; conditions: ITC-based Kd determination; read-out: Kd by ITC, full-length Atg19; cited from earlier work

Molecule: EGFP-Atg8 (from UniProt P38182 1-116) (natural protein)
- EGFP-Atg8 signal on beads, percent of wild type [1]: 47%
- EGFP-Atg8 signal on beads, percent of wild type [2]: 25%
- EGFP-Atg8 signal on beads, percent of wild type [3]: 23%

Molecule: GDDNEKALTWEEL [canonical LIR peptide]
- Kd [4]: 2800 nM

Molecule: GDDNEKALTWEEL [peptide containing the canonical 412WEEL415 motif (Atg19, 403…415)]
- Kd [5]: 2800 nM

Molecule: QIDTLPELDDSS [12 amino acid peptide containing 384LPEL387 of Atg19]
- Kd [6]: ~590 µM

Molecule: SQEPFYSFQIDT [12 amino acid peptide containing 376FYSF379 of Atg19]
- Kd [6]: ~330 µM

B1: GST-Atg19 CTD, wild type, P35193 L384A; L387A; W412A (protein)
chain: SAESLQASQEPFYSFQIDTAPEADDSSIISTSISLSYDGDDNEKALTAEEL
- percent of parent [7]: 7%

B2: GST-Atg19 CTD, wild type, P35193 F376A; F379A; L384A; L387A; W412A (protein)
chain: SAESLQASQEPAYSAQIDTAPEADDSSIISTSISLSYDGDDNEKALTAEEL
- percent of parent [7]: 2%

B3: Atg19 C-terminal domain (amino acids 365-415), wild type (domain or fragment, S. cerevisiae, UniProt P35193 365-415, looked up)
chain: SAESLQASQEPFYSFQIDTLPELDDSSIISTSISLSYDGDDNEKALTWEEL
notes: Atg19, S. cerevisiae, C-terminal domain, amino acids 365-415; also called Atg19 CTD; wild-type Atg19 C terminus; source: E. coli Rosetta pLysS DE3, purified (glutathione beads, thrombin, SEC)
- Kd [6]: ~130 µM

B4: Atg19 CTD F376A, F379A, W412A (amino acids 365-415) (domain or fragment, S. cerevisiae, UniProt P35193 365-415, looked up)
chain: SAESLQASQEPAYSAQIDTLPELDDSSIISTSISLSYDGDDNEKALTAEEL
notes: Atg19, S. cerevisiae, C-terminal domain, amino acids 365-415, F376A, F379A, W412A; also called FFWA; triple mutant C terminus; source: E. coli Rosetta pLysS DE3, purified (glutathione beads, thrombin, SEC)
- Kd [6]: 290 µM

B5: Atg19 W412A CTD (amino acids 365-415) (domain or fragment, S. cerevisiae, UniProt P35193 365-415, looked up)
chain: SAESLQASQEPFYSFQIDTLPELDDSSIISTSISLSYDGDDNEKALTAEEL
notes: Atg19, S. cerevisiae, C-terminal domain, amino acids 365-415, W412A; also called WA; W412A mutant Atg19 CTD; source: E. coli Rosetta pLysS DE3, purified (glutathione beads, thrombin, SEC)
- Kd [6]: 180 µM

B6: Atg19 CTD L384A, L387A (amino acids 365-415) (domain or fragment, S. cerevisiae, UniProt P35193 365-415, looked up)
chain: SAESLQASQEPFYSFQIDTAPEADDSSIISTSISLSYDGDDNEKALTWEEL
notes: Atg19, S. cerevisiae, C-terminal domain, amino acids 365-415, L384A, L387A; also called LLA; source: E. coli Rosetta pLysS DE3, purified (glutathione beads, thrombin, SEC)
- Kd [6]: ~70 µM

B7: W412A (protein, UniProt P35193 1-415, looked up, variant W412A)
Autophagy-related protein 19: MNNSKTNQQMNTSMGYPLTVYDECNKFQLIVPTLDANIMLWCIGQLSLLNDSNGCKHLFWQPNDKSNVRILLNNYDYGHLFKYLQCQRKCSVYIGEGTLKKYNLTISTSFDNFLDLTPSEEKESLCREDAHEDPVSPKAGSEEEISPNSTSNVVVSRECLDNFMKQLLKLEESLNKLELEQKVTNKEPNHRISGTIDIPEDRSELVNFFTELKTVKQLEDVFQRYHDYERLSQECDSKTEIASDHSKKETKIEVEPPNERSLQITMNQRDNSLYFQLFNNTNSVLAGNCKLKFTDAGDKPTTQIIDMGPHEIGIKEYKEYRYFPYALDLEAGSTIEIENQYGEVIFLGKYGSSPMINLRPPSRLSAESLQASQEPFYSFQIDTLPELDDSSIISTSISLSYDGDDNEKALTAEEL
- relative binding (EGFP-Atg8 signal on beads, normalized to wild-type GST-Atg19 CTD) [8]: 23%

B8: L384A, L387A (protein, UniProt P35193 1-415, looked up, variant L384A L387A)
Autophagy-related protein 19: MNNSKTNQQMNTSMGYPLTVYDECNKFQLIVPTLDANIMLWCIGQLSLLNDSNGCKHLFWQPNDKSNVRILLNNYDYGHLFKYLQCQRKCSVYIGEGTLKKYNLTISTSFDNFLDLTPSEEKESLCREDAHEDPVSPKAGSEEEISPNSTSNVVVSRECLDNFMKQLLKLEESLNKLELEQKVTNKEPNHRISGTIDIPEDRSELVNFFTELKTVKQLEDVFQRYHDYERLSQECDSKTEIASDHSKKETKIEVEPPNERSLQITMNQRDNSLYFQLFNNTNSVLAGNCKLKFTDAGDKPTTQIIDMGPHEIGIKEYKEYRYFPYALDLEAGSTIEIENQYGEVIFLGKYGSSPMINLRPPSRLSAESLQASQEPFYSFQIDTAPEADDSSIISTSISLSYDGDDNEKALTWEEL
- relative binding (EGFP-Atg8 signal on beads, normalized to wild-type GST-Atg19 CTD) [8]: 47%

B9: full-length Atg19: full-length Atg19 cargo receptor of S. cerevisiae (protein, UniProt P35193 1-415, looked up)
chain: MNNSKTNQQMNTSMGYPLTVYDECNKFQLIVPTLDANIMLWCIGQLSLLNDSNGCKHLFWQPNDKSNVRILLNNYDYGHLFKYLQCQRKCSVYIGEGTLKKYNLTISTSFDNFLDLTPSEEKESLCREDAHEDPVSPKAGSEEEISPNSTSNVVVSRECLDNFMKQLLKLEESLNKLELEQKVTNKEPNHRISGTIDIPEDRSELVNFFTELKTVKQLEDVFQRYHDYERLSQECDSKTEIASDHSKKETKIEVEPPNERSLQITMNQRDNSLYFQLFNNTNSVLAGNCKLKFTDAGDKPTTQIIDMGPHEIGIKEYKEYRYFPYALDLEAGSTIEIENQYGEVIFLGKYGSSPMINLRPPSRLSAESLQASQEPFYSFQIDTLPELDDSSIISTSISLSYDGDDNEKALTWEEL
modifications: full-length
notes: full-length Atg19 cargo receptor of S. cerevisiae
- Kd [9]: 35 µM

B10: F376, F379, L384, L387A (protein, UniProt P35193 1-415, looked up, variant F376A F379A L384A L387A)
Autophagy-related protein 19: MNNSKTNQQMNTSMGYPLTVYDECNKFQLIVPTLDANIMLWCIGQLSLLNDSNGCKHLFWQPNDKSNVRILLNNYDYGHLFKYLQCQRKCSVYIGEGTLKKYNLTISTSFDNFLDLTPSEEKESLCREDAHEDPVSPKAGSEEEISPNSTSNVVVSRECLDNFMKQLLKLEESLNKLELEQKVTNKEPNHRISGTIDIPEDRSELVNFFTELKTVKQLEDVFQRYHDYERLSQECDSKTEIASDHSKKETKIEVEPPNERSLQITMNQRDNSLYFQLFNNTNSVLAGNCKLKFTDAGDKPTTQIIDMGPHEIGIKEYKEYRYFPYALDLEAGSTIEIENQYGEVIFLGKYGSSPMINLRPPSRLSAESLQASQEPAYSAQIDTAPEADDSSIISTSISLSYDGDDNEKALTWEEL
- relative binding (EGFP-Atg8 signal on beads, normalized to wild-type GST-Atg19 CTD) [8]: 25%

B11: L384, L387, W412A (protein, UniProt P35193 1-415, looked up, variant L384A L387A W412A)
Autophagy-related protein 19: MNNSKTNQQMNTSMGYPLTVYDECNKFQLIVPTLDANIMLWCIGQLSLLNDSNGCKHLFWQPNDKSNVRILLNNYDYGHLFKYLQCQRKCSVYIGEGTLKKYNLTISTSFDNFLDLTPSEEKESLCREDAHEDPVSPKAGSEEEISPNSTSNVVVSRECLDNFMKQLLKLEESLNKLELEQKVTNKEPNHRISGTIDIPEDRSELVNFFTELKTVKQLEDVFQRYHDYERLSQECDSKTEIASDHSKKETKIEVEPPNERSLQITMNQRDNSLYFQLFNNTNSVLAGNCKLKFTDAGDKPTTQIIDMGPHEIGIKEYKEYRYFPYALDLEAGSTIEIENQYGEVIFLGKYGSSPMINLRPPSRLSAESLQASQEPFYSFQIDTAPEADDSSIISTSISLSYDGDDNEKALTAEEL
- relative binding (EGFP-Atg8 signal on beads, normalized to wild-type GST-Atg19 CTD) [8]: 7%

B12: Atg19 CTD (amino acids 365-407) F376A, F379A, L384A, L387A (domain or fragment, S. cerevisiae, UniProt P35193 365-407, looked up)
chain: SAESLQASQEPAYSAQIDTAPEADDSSIISTSISLSYDGDDNE
notes: Atg19, S. cerevisiae, amino acids 365-407 (last eight amino acids 408-415 deleted), F376A, F379A, L384A, L387A; also called FFLLΔ; source: E. coli Rosetta pLysS DE3, purified (glutathione beads, thrombin, SEC)
- Kd [6]: 600 µM
